Source: patent publication US20240254222A1 (Bayer, published 2024)

Molecular target: T1, Human Semaphorin3A-Fc (R&D Systems), TPP-13211 (human)
T1 construct: R&D Systems 1250-S3; also called recombinant human Sema3A-Fc chimera
Test: competition ELISA on coated TPP-13211, competitor biotinylated TPP-15374
Experimental: For screening in a competition ELISA setup, human Sema3a (TPP-13211) was coated onto 384-well plates (Greiner bio-one, 781077) with a concentration of 0.5 μg/ml in coating buffer (Carbonate-Basis pH 9.6, Candor 121125) over night at 10° C. After washing the plates 3 times with 50 μl PBS 0.05% Tween the plates were blocked with 50 μl Smart Block® (Candor 113500) for 1 h at 20° C. and washed again 3 times as described.
Subsequently, 20 μl of pre-mixed antibody solution was added to the plates and incubate for 18 h at 10° C. […] The total concentration of the added antibody solution was 0.25 μg/ml. During the incubation time the antibodies bound to the plates in a competitive manner as they compete for the same epitope on the human Sema3A protein.
After subsequent washing with 50 μl PBS 0.05% Tween for 3 times, 20 μl of a Streptavidin-HRP solution (R&D Systems, DY998, 1:200 in PBS 0.05% Tween 10% Smart Block) were added and incubated for 1 h and 20° C. followed by subsequent washing 3 times with 50 μl PBS 0.05% Tween and addition of 20 μl Amplex Red solution (Invitrogen A12222, 1:1000 in NaP-buffer 50 mM pH7.6 with 1:10000 of 30% H2O2). After a final incubation for 20 min at 20° C. the signal was determined using an emission wavelength of 595 nm and excitation of 530 nm.

T1 sequence (chain, as listed by the source limits assumed): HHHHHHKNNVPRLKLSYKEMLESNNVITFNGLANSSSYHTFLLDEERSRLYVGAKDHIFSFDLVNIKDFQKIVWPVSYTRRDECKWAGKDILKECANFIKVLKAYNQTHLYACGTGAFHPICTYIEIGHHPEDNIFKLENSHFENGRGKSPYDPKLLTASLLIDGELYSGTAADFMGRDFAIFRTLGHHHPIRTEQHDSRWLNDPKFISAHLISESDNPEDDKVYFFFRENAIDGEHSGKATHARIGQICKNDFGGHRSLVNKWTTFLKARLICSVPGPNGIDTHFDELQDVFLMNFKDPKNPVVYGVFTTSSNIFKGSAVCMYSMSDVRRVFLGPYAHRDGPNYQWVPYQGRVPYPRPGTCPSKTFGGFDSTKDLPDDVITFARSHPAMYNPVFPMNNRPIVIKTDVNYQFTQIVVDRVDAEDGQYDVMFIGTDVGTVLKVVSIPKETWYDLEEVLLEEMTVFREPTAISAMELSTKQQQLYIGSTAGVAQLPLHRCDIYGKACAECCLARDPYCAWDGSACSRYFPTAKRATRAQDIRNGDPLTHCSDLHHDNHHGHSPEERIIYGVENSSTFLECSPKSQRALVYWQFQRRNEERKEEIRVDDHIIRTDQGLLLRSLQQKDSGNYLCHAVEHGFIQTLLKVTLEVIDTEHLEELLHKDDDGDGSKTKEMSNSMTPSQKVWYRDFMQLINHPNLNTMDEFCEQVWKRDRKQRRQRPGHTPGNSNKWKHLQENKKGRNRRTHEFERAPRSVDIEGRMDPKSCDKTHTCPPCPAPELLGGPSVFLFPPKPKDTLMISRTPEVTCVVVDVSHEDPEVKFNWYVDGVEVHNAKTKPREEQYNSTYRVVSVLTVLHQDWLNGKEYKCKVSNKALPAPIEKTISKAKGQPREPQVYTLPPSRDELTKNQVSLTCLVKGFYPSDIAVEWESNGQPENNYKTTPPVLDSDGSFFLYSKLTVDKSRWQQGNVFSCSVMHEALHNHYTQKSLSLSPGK

B1: TPP-15374 (antibody, human IgG1, lambda, V domains shown)
VH: EVQLLESGGGLVQPGGSLRLSCAASGFTFSSYEMNWVRQAPGKGLEWVSGISWNSGSIGYADSVKGRFTISRDNSKNTLYLQMNSLRAEDTAVYYCARSGYSSSWFDPDFDYWGQGTLVTVSS
VL: QSVLTQPPSASGTPGQRVTISCTGSSSNIGAGYDVHWYQQLPGTAPKLLIYGNSNRPSGVPDRFSGSKSGTSASLAISGLRSEDEADYYCSSYAGSNPYVVFGGGTKLTVLG
notes: human IgG1; also called IgG1, hit from panning; parental mAb
VAL norm to TPP-9809 (1 to 1 ratio): 0.69
VAL norm to TPP-9809 (1 to 5 ratio): 0.41
